B1: TPR t1 (parent)
chain: GACCAAUCUGCCCUCAGAGCUCGAGAACAUCUUCGGAUGCAGAGGAGGCAGGCUUCGGUGGCGCGAUAGCGCCAACGUCCUCAACCUCCAAUGCAUCCCACCACAUGAUGAUGCCUGAAGAGCCUUGGUUUUUUG

Variants of: B1
Test: polymerase ribozyme fitness, log enrichment relative to wild type (log ratio); higher = more active; in vitro selection for triplet polymerase activity
Outline: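 Each subunit of a heterodimeric triplet polymerase ribozyme was mutagenized into a library by PCR, transcribed, and subjected to one round of in vitro selection, run in triplicate. Libraries were annealed with a biotinylated primer, the partner subunit and triplets, incubated frozen at −7 °C, and extended constructs were gel-excised, captured on streptavidin beads and recovered by RT-PCR. Input and output libraries were sequenced on Illumina, keeping genotypes with ≥10 input reads and ≥1 read per output. Fitness is log base 2 of genotype enrichment divided by wild-type enrichment, from inverse-variance-weighted replicate averages.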

Row | Variant | polymerase ribozyme fitness (log ratio)
1 | GACCAAUCUGCCCUCAGAGCUCGAGAACAUCUUCGGAUGCAGAGGAGGCAGGCUUCGGUGGCGCGAUAGCGCCAACAUCCUCAUCCUCCAAUGCAUCCCACCACAUGAUGAGGCCUGAAGAGCCUUGGUUUUUUG | -2.45
2 | GACCAAUCUGCCCUCAGAGCUCGAGAACAUCUUCGGAUGCAGAGGAGGCAGGCUUCGGUGGCGCGAUAGCGCCAAUGUCCUCAACCUCCAAUGCAUCCCACCACAUGAUGAUGCCUGAAGAGCCAUGGUUUUUUG | -0.353
3 | GACCAAUCUGCCCUCAGAGCUCGAGAACAUCUUCGGAUGCAGAGGAGGCAGGCUUCGGUGGCGCGAUAGCGCCAAUGUCCUCAACUUCCAUUGCAUCCCACCACAUGAUGAUGCCUGAAGAGCCUUGGUUUUUUG | -3.49
4 | GACCAAUCUGCCCUCAGAGCUCGAGAACAUCUUCGGAUGCAGAGGAGGCAGGCUUCGGUGGCGCGAUAGCGCCAUUGUCCUCAACCUCCAAUGCAUCCCACCACAUGAUGAUGCCUGAAGAGCCUUGGUUUUUUG | -1.57
5 | GACCAAUCUGCCCUCAGAGCUCGAGAACAUCUUCGGAUGCAGAGGAGGCAGGCUUCGGUGGCGCGAUAGCGCCAAAGUCCUGAACCUUCAAUGCAUCCCACCACAUGAUCAUGCCUGAAGAGCCUUGGUUUUUUG | -5.82
6 | GACCAAUCUGCCCUCAGAGCUCGAGAACAUCUUCGGAUGCAGAGGAGGCAGGCUUCGGUGGCGCGAUAGCGCCAAAGUCCUCAACCUCCAAUGCAUCCCACCACAUGAUAAUGCAUGAAGAGCCUUGGUUUUUUG | -2.95
7 | GACCAAUCUGCCCUCAGAGCUCGAGAACAUCUUCGGAUGCAGAGGAGGCAGGCUUCGGUGGCGCGAUAGCGCCAAUGUCCUCAACCUCCAAUGCAUCCCACCACAUGAUGAUGCCUCAAGAGCCUUGGUUUUUUG | -3.98
8 | GACCAAUCUGCCCUCAGAGCUCGAGAACAUCUUCGGAUGCAGAGGAGGCAGGCUUCGGUGGCGCGAUAGCGCCAGCGUCCUCAACCUCCAAUGCAUCCCACCACAUGAUGAUGCCUGAAGAGCCUUGGAUUUUUG | -0.79
9 | GACCAAUCUGCCCUCAGAGCUCGAGAACAUCUUCGGAUGCAGAGGAGGCAGGCUUCGGUGGCGCGAUAGCGCCAACAUCCUCAACCUCCGAUGCAUCCCACCACAUGAUGAUGCCUGAAGAGCCUUGGUUUUUUG | -0.174
10 | GACCAAUCUGCCCUCAGAGCUCGAGAACAUCUUCGGAUGCAGAGGAGGCAGGCUUCGGUGGCGCGAUAGCGCCUACGGCCUCAACCUCCAAUGCAUCCCACCACAUGAUGAUGCCUGAAGAGCCUUGGUUGUUUG | -1.29
11 | GACCAAUCUGCCCUCAGAGCUCGAGAACAUCUUCGGAUGCAGAGGAGGCAGGCUUCGGUGGCGCGAUAGCGCCAAUGUCCUCAACCUCCAAUGCAUCCCACCAAAUGAUGAUGCCUGAAGAGCCUUGGUUUUUUG | -1.92
12 | GACCAAUCUGCCCUCAGAGCUCGAGAACAUCUUCGGAUGCAGAGGAGGCAGGCUUCGGUGGCGCGAUAGCGCCAGCGUCCUCAACCUCCAAUGCAUCCCACCACAUGAUGAAGCCUGAAGAGCCUUGGUUUUUUG | 1.59
13 | GACCAAUCUGCCCUCAGAGCUCGAGAACAUCUUCGGAUGCAGAGGAGGCAGGCUUCGGUGGCGCGAUAGCGCCUACGUCCUCAACCUCCAAUGCAUCCCACCACAUGAUGAAGCCUGAAGAGCCUUGAUUUUUUG | -1.59
14 | GACCAAUCUGCCCUCAGAGCUCGAGAACAUCUUCGGAUGCAGAGGAGGCAGGCUUCGGUGGCGCGAUAGCGCCAAAGACCUCAACCUCCAAUGCAACCCACCACAUGAUGAUGCCUGAAGAGCCUUGGUUUUUUG | -1.43
15 | GACCAAUCUGCCCUCAGAGCUCGAGAACAUCUUCGGAUGCAGAGGAGGCAGGCUUCGGUGGCGCGAUAGCGCCAUCGUCCACAACCUCCAAUGCAUCCCACCACAUGAUGAUCCCUGAAGAGCCUUGGUCUUUUG | -3.89
16 | GACCAAUCUGCCCUCAGAGCUCGAGAACAUCUUCGGAUGCAGAGGAGGCAGGCUUCGGUGGCGCGAUAGCGCCAAUGUCCUCAACCUACAAUGCAUCCCACCACAUGAUGAUGCCUGAAGAGCCUUGGUUUUUUG | -1.29
17 | GACCAAUCUGCCCUCAGAGCUCGAGAACAUCUUCGGAUGCAGAGGAGGCAGGCUUCGGUGGCGCGAUAGCGCCAAGUUCCUCAACCUCCAAUGCAUCCCACCACAUGAUGAUGCCUGAAGAGCCUUGGUUUUUUG | 0.0405
18 | GACCAAUCUGCCCUCAGAGCUCGAGAACAUCUUCGGAUGCAGAGGAGGCAGGCUUCGGUGGCGCGAUAGCGCCAAUGUCCUUAACCUCCAAUGCAUCCCACUACAUGAUGAUGCCUAAAGAGCCUUGGUUUUUUG | -4.4
19 | GACCAAUCUGCCCUCAGAGCUCGAGAACAUCUUCGGAUGCAGAGGAGGCAGGCUUCGGUGGCGCGAUAGCGCCAAGGUCCUCAUCCUCCAAUGCAUCCCACCACAUGAUGAUGCCUGAAGAGCCUUGGUUUUGUG | -0.998
20 | GACCAAUCUGCCCUCAGAGCUCGAGAACAUCUUCGGAUGCAGAGGAGGCAGGCUUCGGUGGCGCGAUAGCGCCUACGUCCUCAACCUCCAAUGCAUCCCACCACAUGAUGAUACCUGAAGAGCCUUGGAUUUUUG | -1.94
21 | GACCAAUCUGCCCUCAGAGCUCGAGAACAUCUUCGGAUGCAGAGGAGGCAGGCUUCGGUGGCGCGAUAGCGCCAAUGUCCUAAACCUUCAAUGCAUCCCACCACAUGAUGAUGCCUGAAGAGCCUUGGUUUUUUG | -1.25

Row | Variant | polymerase ribozyme fitness (log ratio)
22 | GACCAAUCUGCCCUCAGAGCUCGAGAACAUCUUCGGAUGCAGAGGAGGCAGGCUUCGGUGGCGCGAUAGCGCCAGCGUCCUCAACCUCCAAUGCAUUCCACCACAUGAUGAUGCCUGAAGAGCCUUGGUUAUUUG | -0.00214
23 | GACCAAUCUGCCCUCAGAGCUCGAGAACAUCUUCGGAUGCAGAGGAGGCAGGCUUCGGUGGCGCGAUAGCGCCAAGGUCCUCAACCUCCAAUGCAUCCAACCACAUGAUGAAGCCUGAAGAGCCUUGGUUUUUUG | -4.02
24 | GACCAAUCUGCCCUCAGAGCUCGAGAACAUCUUCGGAUGCAGAGGAGGCAGGCUUCGGUGGCGCGAUAGCGCCAAUGUCCUCAACCUCCAAUGCAUCCCACCACAUGAUGAUGCCUGAAGAGCCUUAGUUUUUUG | -1.52
25 | GACCAAUCUGCCCUCAGAGCUCGAGAACAUCUUCGGAUGCAGAGGAGGCAGGCUUCGGUGGCGCGAUAGCGCCUACGUCCUCAACCUCCAAUGCAUCCCACCACAUGAUAAUGCCUGAAGAGCCUUGGUUUUUUG | -1.3
26 | GACCAAUCUGCCCUCAGAGCUCGAGAACAUCUUCGGAUGCAGAGGAGGCAGGCUUCGGUGGCGCGAUAGCGCCAAAGUCCUCAACCUCAAAUGCAUCCCACCACAUGAUGAUGCCUGAAGAGCCUUGGUUUUUUG | -3.18
27 | GACCAAUCUGCCCUCAGAGCUCGAGAACAUCUUCGGAUGCAGAGGAGGCAGGCUUCGGUGGCGCGAUAGCGCCUACGUCCUCAACCUCCAAUGCAUCCCACCACAUGAUGAUGCCUGAAUAGCCUUGGUUUUUUG | -0.788
28 | GACCAAUCUGCCCUCAGAGCUCGAGAACAUCUUCGGAUGCAGAGGAGGCAGGCUUCGGUGGCGCGAUAGCGCCAAGGUCCUCAACCUCCAAUGCAUCACACCACAUGAUGAUGCCUGAAGAGCCUUGGUUUUUUG | -4.09
29 | GACCAAUCUGCCCUCAGAGCUCGAGAACAUCUUCGGAUGCAGAGGAGGCAGGCUUCGGUGGCGCGAUAGCGCCUACGACCUCAAUCUCCAAUGCAUCCCACCACAUGAUGAUGUCUGAAGAGCCUUGGUUUUUUG | -4.72
30 | GACCAAUCUGCCCUCAGAGCUCGAGAACAUCUUCGGAUGCAGAGGAGGCAGGCUUCGGUGGCGCGAUAGCGCCAAUGUCCUCAACCUCCAAUGCAUCCCACCACAUGAUGAUGCCUGAAGAGCCUUGGUUUUUUU | -1.08
31 | GACCAAUCUGCCCUCAGAGCUCGAGAACAUCUUCGGAUGCAGAGGAGGCAGGCUUCGGUGGCGCGAUAGCGCCUACGUCCUCAACCACCAAUGCAUCCCACUAAAUGAUGAUGCCUGAAGAGCCUUGGUUUUUUG | -2.53
32 | GACCAAUCUGCCCUCAGAGCUCGAGAACAUCUUCGGAUGCAGAGGAGGCAGGCUUCGGUGGCGCGAUAGCGCCAAAGUCCUCAACCUCCAAUGCAUCCCACCACAUGAUGAUCCCUGAAGAGCCUUGGUUUUUUG | -3.53
33 | GACCAAUCUGCCCUCAGAGCUCGAGAACAUCUUCGGAUGCAGAGGAGGCAGGCUUCGGUGGCGCGAUAGCGCCAAUGUCCUCAACCUCCAAUGCAUCCCACCACAUGAUGUUGCCUGAAGAGCCUUGGUUUUUUG | -3.86
34 | GACCAAUCUGCCCUCAGAGCUCGAGAACAUCUUCGGAUGCAGAGGAGGCAGGCUUCGGUGGCGCGAUAGCGCCAAGGUCCUCAACCUCCAAUGCAUCCCACUAAAUGAUGAUGCCUGAAGAGCCUUGGUUUUUUG | -1.03
35 | GACCAAUCUGCCCUCAGAGCUCGAGAACAUCUUCGGAUGCAGAGGAGGCAGGCUUCGGUGGCGCGAUAGCGCCAGCGUCCUCAACCUCCAAUGGAUCCCACCACAUGAUGAUGCCUGAAGAGCCUUGGUUUUUUG | -1.19
36 | GACCAAUCUGCCCUCAGAGCUCGAGAACAUCUUCGGAUGCAGAGGAGGCAGGCUUCGGUGGCGCGAUAGCGCCAACAUCCUCAACCUCCAGUGCAUCCCACCACAUGAUGAUGCCUGAAGAGCCUUGGUUUUUUG | -1.01
37 | GACCAAUCUGCCCUCAGAGCUCGAGAACAUCUUCGGAUGCAGAGGAGGCAGGCUUCGGUGGCGCGAUAGCGCCAUCGUCCUCAACCUCCAAUGCAUCCCACCACAUGAUGCUGCCUGAAGAGCCUUGGUUUUUUG | 0.255
38 | GACCAAUCUGCCCUCAGAGCUCGAGAACAUCUUCGGAUGCAGAGGAGGCAGGCUUCGGUGGCGCGAUAGCGCCAAAGACCUCAACCUCCAAUGCAUCCCACCACAUGAUGAUGCCUGUAGAGCCUUGGUUUUUUG | 0.066
39 | GACCAAUCUGCCCUCAGAGCUCGAGAACAUCUUCGGAUGCAGAGGAGGCAGGCUUCGGUGGCGCGAUAGCGCCAAGGUCCUCAACCUCCCAUGCAUCCCACCACAUGAUGAUGCCUGAAGAGCCUUGGUUUUUUG | -0.998
40 | GACCAAUCUGCCCUCAGAGCUCGAGAACAUCUUCGGAUGCAGAGGAGGCAGGCUUCGGUGGCGCGAUAGCGCCAAAGUCCUCAACCUCCAAUGCAUCCCACCACAUGAUGAUGCCUGAAUAGCCUUGGUUUUUUG | -0.741
41 | GACCAAUCUGCCCUCAGAGCUCGAGAACAUCUUCGGAUGCAGAGGAGGCAGGCUUCGGUGGCGCGAUAGCGCCUACGCCCUCAACCUCCAAUGCAUCCCACCACAUGAUGAUGCCUGAACAGCCUUGGUUUUUUG | 0.366
42 | GACCAAUCUGCCCUCAGAGCUCGAGAACAUCUUCGGAUGCAGAGGAGGCAGGCUUCGGUGGCGCGAUAGCGCCAUGGUCCUCAACCUGUGAUGCAUCCCACCACAUGAUGAUGCCUGAAGAGCCUUGGUUUUUUG | -2.47

Source: the RNAGym collection of RNA variant scans (doi:10.1073/pnas.2313332121)
